Publication PMC8609903, “Novel Lung Targeting Cell Penetrating Peptides as Vectors for Delivery of Therapeutics” (Research Square, 2021)

Key:
[1] = tested on: SARS-CoV-2 (strain USA_WA1/2020); format: cell-based; details: concentrations of 2, 0.2, and 0.02 μM, human bronchial epithelial cells
[2] = tested on: Rat cardiomyoblast H9C2 cells; details: 10μM peptide, 30 minutes, 37°C, N-terminal Cy5.5, C-terminal amide, FACs, biological triplicates, p<0.001
[3] = tested on: human bronchial epithelial cells
wild-type CD1 mice = experiment: Biodistribution time course of Cy5.5 labeled R11A, ex-vivo IVIS imaging; details: 5mg/Kg Cy5.5 labeled R11A intravenous, 15-360 minutes, n=3
Procedure: Mice were euthanized at the end of the circulation period, perfused and fixed as before, and multiple organs harvested and ex-vivo IVIS imaging performed immediately.
Wild-type, 6-week old, female CD1 mice were purchased from Charles Rivers. After at least 48 hours of acclimatization after arriving in the animal colony, mice were weighed and anesthetized with an intraperitoneal injection of a 1:1 cocktail of Ketamine:Xylazine at 1–2μL/gm body weight. […] At the end of circulation time, mice were euthanized using inhalational CO2 as per IACUC-approved protocol, chest cavity opened, right atrium nicked and 3–5ml of 4% formalin injected through the left ventricular apex to perfusion fix the animals. Various organs were harvested, rinsed once in PBS and placed on a petri dish to be imaged using IVIS (Perkin- Elmer – S5 instrument). All mice were imaged using identical instrument settings (stage position, exposure time, binning, F-stop etc.). […] All time-points were tested in at least triplicate (n=3).

Row | Molecule | reduction of SARS-CoV-2 titers compared to virus controls [1] | Cy5.5 intensities, fold higher [2] [fold] | uptake at 4°C [3] | fluorescence in kidneys (wild-type CD1 mice) | fluorescence in liver (wild-type CD1 mice)
1 | CCC(CC)COC(=O)[C@H](C)N[P@](=O)(OC[C@H]1O[C@@](C#N)(c2ccc3c(N)ncnn23)[C@H](O)[C@@H]1O)Oc1ccccc1 [Remdesivir] | statistically significant |  |  |  | 
2 | APWHLSAQYSRT ({Cy5.5}-APWHLSAQYSRT-NH2) [S7A] |  | ~3 | very little uptake |  | 
3 | APWHLSSQYSAT ({Cy5.5}-APWHLSSQYSAT-NH2) [R11A] |  |  | very little uptake | little fluorescence | decreased over time
